# Data taken from publication PMC2602803.
# Read-outs that look alike come from different tables or passages of the source.
# B1: unmethylated CpG 12-bp duplex (dsDNA)
# DNA 1: AACTGCGCAGTT
# DNA 2: AACTGCGCAGTT
# B2: hemimethylated CpG 12-bp duplex (dsDNA)
# DNA 1: TCCATGCGCTGAC
# DNA 2: GTCAGCGCATGG
# modifications: 5-methylcytosine at position 6 of strand 2 (…); strand 1 unmethylated
# Experiments:
# [1] = molecular target: T1, UHRF1 SRA domain (NP95) (mouse, UniProt Q8VDF2 419-628); test: X-ray crystallography
# T1 sequence: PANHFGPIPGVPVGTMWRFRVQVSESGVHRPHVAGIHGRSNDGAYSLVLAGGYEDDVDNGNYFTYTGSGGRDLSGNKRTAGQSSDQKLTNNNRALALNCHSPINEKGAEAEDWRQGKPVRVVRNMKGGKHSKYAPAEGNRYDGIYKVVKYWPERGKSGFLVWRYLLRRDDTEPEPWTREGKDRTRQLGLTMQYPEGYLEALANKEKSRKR
# [2] = molecular target: T1, UHRF1 SRA domain (NP95); test: X-ray crystallography; remark: listed apart in the source
Binder,binding result [1],binding result [2]
B1,binds,
B2,,binds
